According to the DeepSol protein solubility set:

Test: soluble on expression in E. coli; label from the status in PepcDB or PDB records

| Sequence | soluble on expression in E. coli |
| --- | --- |
| MAHHHHHHMFRDGYSLDSVCHRLRYEIGVPHDGVYLHEPPGGSFAAVTQFGVAVGVTREQLPHASRHYNVHALIFDDRGYHALDELPRLSVAPQAYLHRILLRCVSGDEAAVAQRLRHLSSNGFINYFGLESFGIGSNTLFDMAAFAFRREPHRSVGAYLQTLAECSPLHHQPYLSYANAEESTVAGAVAEWLRVCERAKLPRETRELLRKLHCYHLSQCHPSDATTISMEDVWKACPIMHRAEQSAAAFVWNAMASQRLLSFGSRPVKGDLVCRIGNRGAIEIAEVASDTDASHYTIDDVVLPIPCGGTPAAELRYPTHSVNEAFFTQFAKKHSLSFLFNSGVDPTPRAAATLGPYRRLVSRPRNLQAAVLQDPSSCAALKSDLFLLQEHQPTEGWSLDYRQRVREPSNFNVSERFRERMSCIRKRRAGEHSVALAFVLPAGSSPWVALREAFHMHYGTFHDFYGVS | not soluble |
| STVLDSLQHTGRGDKVYWFCYGMKCYYFVMDRKTWSGCKQTCQSSSLSLLKIDDEDELKFLQLVVPSDSCWVGLSYDNKKKDWAWIDNRPSKLALNTRKYNIRDGGCMLLSKTRLDNGNCDQVFICICGKRLDKFPH | soluble |
| MSLDPSKVTSMSAVEFTPLPTCLQHRSCDACMSSDLTFNCSWCHVLQRCSSGFDRYRQEWMDYGCAQEAEGRMCEDFQDEGHHHHHH | not soluble |
| MSLPGNNSAKGTATGNATALWRNAQLATLNPAMDGIGAVENAVIAVRNGRIAFAGPESDLPDDLSTADETTDCGGRWITPALIDCHTHLVFGGNRAMEFEMRLNGATYEEIAKAGGGIVSSVRDTRALSDEVLVAQALPRLDTLLSEGVSTIEIKSGYGLDIETELKMLRVARRLETLRPVRIVTSYLAAHATPADYKGRNADYITDVVLPGLEKAHAEGLADAVDGFCEGIAFSVKEIDRVFAAAQQRGLPVKLHAEQLSNLGGAELAASYNALSADHLEYLDETGAKALAKAGTVAVLLPGAFYALREKQLPPVQALRDAGAEIALATDCNPGTSPLTSLLLTMNMGATLFRMTVEECLTATTRNAAKALGLLAETGTLEAGKSADFAIWDIERPAELVYRIGFNPLHARIFKGQKVSPEGHHHHHH | soluble |
| GLDVAISQNGFFRLVDSNGSVFYSRNGQFKLDENRNLVNMQGMQLTGYPATGTPPTIQQGANPAPITIPNTLMAAKSTTTASMQINLNSTDPVPSKTPFSVSDADSYNKKGTVTVYDSQGNAHDMNVYFVKTKDNEWAVYTHDSSDPAATAPTTASTTLKFNENGILESGGTVNITTGTINGATAATFSLSFLNSMQQNTGANNIVATNQNGYKPGDLVSYQINNDGTVVGNYSNEQEQVLGQIVLANFANNEGLASQGDNVWAATQASGVALLGTAGSGNFGKLTNGALEASNVDLSK | soluble |
| MGSDKIHHHHHHMAEITSISQFLSTAKTQFQVYDLGRRVQHIDAMAFAQIEALQAPYPYPIQGHAKMALVFWDASEQHFVWFISLPLDERGLLSPAPRSHFIQMILEALGQDLTRTLSEDEQQKMANHPFSFKPTQEKLAVFNALVRRHLGRSASSQYEFAAQYLSGQLPAESWPNVGFQGLADICVRLGELDHAAMVARALKNAPMEVQIALCQCLEHVLVSDEVKDALLAGLEEHRDARLIYFLRALGSQSDASVRAIASLAEKRLLTEEVLICIAGRNWLALRDDVCRKNFLEALALMPQDFFNQVFADIVAIPALRTSMLMAIRDPNRSDALSLAIGGLFKATKS | not soluble |
| MSLKRIYGSNRYETSIMVSKEGWDKSSYAVISRGDNFADALCAVPLSKKYNAPILLIGKDKLNNNLKSELKRLNVSKVFITGGEGVISKTLEGEIKNIPNIKEVKRLGGKDRYETSKLIAESVGCNGEIVVTAGTNSSDTLSISPIAANKNMPILLTAKDKNLMQKYLKSNKVNKTFVIGGEKCVSKEIENILPNVERIYGENRYETNEKIIKRFSNSLDFKNVYIALAQSQRGDEFADALSSAALAAQKNSPIILIYKDIYKNTKDILNTKLSNESIVSILGGEKLISDNILDNLAISKNEGHHHHHH | not soluble |
| MIFRQIHEEGLAQMSYLLGCAATGEALVVDPRRDVDVYLELAQSLGLRITAIAETHIHADYLSGARELARATGATLYLSDEGDENWKYKGLEGFPHVLLKDGDEFKVGNIRVRAVHTPGHTPEHLSFLVADGAVTDEPLLFLTGDFVFVGDVGRPDLLEEAAGIKGTAEPGARRMFRSLKEKFLTLPDHVQVWPGHGAGSACGKALGALPATTVGYERRHAWWAEYLERDDEEGFVKALLQGQPEAPTYFKEMKRLNRDGMAILGGLPHPGRLTPAQFERWLREGAILVDTRDKFAFAGGHIPGSINIPAGKNFSTWAGWLLPYDRPLVLLARPEEVEALTRALVRIGLDEVVGYIPGLEGYAQGELETVPQVTAKEAKELWEKGKAFVLDVRGRDEYLAGHIPGAQNIHAGRVLAHLDRLPKDRPLIVHCVGGDRSSTAISALLAHGFRNALNLTGGIKAWREAGFPVVQGEELVQA | soluble |
| MDIVTLKDFYASVLGKRVQETLCGQLNLCWPDLTGKRVMGFGYALPYLSALRMRAQQCLAFMPAGQGALPWPCADKVATALVFEEDLPLPDASIDCILLIHALEYTENSFETLNEIWRVLVPNGQLIVIVPNRSGLWARNACTPFGYGEPYSRQQIVRLFEKTHFVSGSIQEVVHYMPSSGSVSRFFSFFYEPVARHLLPYFGGLLICQAQKRVYQGLEHHHHHH | not soluble |
| MASIKKVYRGMKNGAETINDDLEAINSELTSGGNVVHKTGDETIAGKKTFTGNVEVNGSLTLPTKSWSGELGGGIILSLRKKGTTVEYSIGGEISSSILANSNLVNRSVPNEFCPRNRCSLVGHMVGGWNAFHIDIPSSGVCQWFGPTASSGTPRGTGTYPIDHHHHHH | soluble |
| MVESTTTIYDVARVAGVSMATVSRVVNGNANVKEKTRQKVLEAIAELDYRPNAVARGLASKRTTTVGVILPTITSTYFAAITRGVDDIASMYKYNMILANSDNDVEKEEKVLETFLSKQVDGIVYMGSSLDEKIRTSLKNSRTPVVLVGTIDGDKEIPSVNIDYHLAAYQSTKKLIDSGNKKIAYIMGSLKDVENTERMVGYQEALLEANIEFDENLVFEGNYSYEQGKALAERLLERGATSAVVSHDTVAVGLLSAMMDKGVKVPEDFEIISGANSPITQYTYPTLTSVNQPLYDLGAVAMRLLTKLMLKEDVEQNQLVLDHEIFSRRSTK | soluble |
| GSDSLIRDLSGLSQKMVQTLLEQIRSNYDDYLTFSNTYTDEENETLINLEKTQSDLQKFMTQLDHLIKDDISNTQEIIKDVLEYLKKLDEIYGSLRNHSQLTEALSLGKRLSKSLHEMCGIEPLEEEICSGLIEQLYKLITASRRILESCADSNSPYIHHLRNDYQDLLQEFQISLKILTEKCLENPSSLQNLSLTLVSIIKTA | soluble |
| MAVVMNWNNFSTNWDLKLLSLILAVIVWGGVSGGRTAELELTVPLELRNLPPGFSVASAVPTEASVTVAGPKILLLKLRSERIIIPLDARGVGEGTTLFTGLERRLGLPREATITRLFPATVEVRLIRSKTVQKPLEHHHHHH | not soluble |
| MVGVLFTFFAWCQRDRDVVGTPFVSIRGIFQADHRAWCENRRRELTKPDGWMSLIGLHWLGPKAHYIGSSPDNGIRLAMGPPDMGMIERDGDVVWFTPHAGVPLTVDGQPLRGRVRVFSDADLTPTTIGFDDGKGWLTLLRRGDRFALRVKHVNAPSRLHFTGLEYWPSDPEWRISARYLPNKAGATLSIFNIVGMTANVPNAGVIAFERLGHTYRLQAIRAAGQALFVMFADRTSGHGSYPAGRFLEVDAPDKQGSVVLDFNRAYNPPCAFTLFTTCLLPPSENRLNLAVTAGEKAYHVSTVLPLEHHHHHH | not soluble |
| MNRKRKWQIPPPSEPVTDEYLTSVTIGERKPLNDRIQLAEYDLRWPSMFSVAADKIRSALSEKALLVEHVGSTSVPGLAAKLIIDMLLGVTDSADEKSYVLPLEQQGFVLQAREPGWYEHRFFRLKSGDMEWHLHVFSAECEEIDRMLAFRNWLRVHDDDRQRYENVKRTLAARTWKHMQNYADAKSDIVREILGRAQDDHVVGITSEAVSAAFRFR | not soluble |
| MTTHSAHLLRRLNPYCAQALAGAATLCQTRAHAEITVEHWLLKLLEQGEGDITVIARRYEWDMDSLWQGLLSHLDTLPRTVQGKPQLSAALQQLIKNAWLDASLQENADAVRSVHLMAALIATPSLLVAEAAWPLLSLSTTQLQRLLPLLDNQSDERPEVQQAAALADSPVNLTDEAATVTSASGQPQLNDALQAALDKFTLDVTAKARANQIDPIFGRDSEIRQMIDILSRRRKNNPILVGEPGVGKTALVEGLALRIADGNVPDSLKTVSVRTLDLGLLQAGAGVKGEFEQRLKNVIEAVQQSPSPVLLFIDEAHTIIGAGNQAGGADAANLLKPALARGELRTIAATTWSEYKQYFERDAALERRFQMVKVDEPDDDTACLMLRGLKERYATHHGVHILDAAITAAVTLSRRFLTGRQLPDKAVDLLDTAGARVRMSIDTLPTALMEINAELAALAMEQQAIEQDLLLLPNVSSTRLPEIEQRRAALAVGQHTLEQQYKEEKRLTTLIIEARQDIANAAHLVALQEELVQIQGNAPLLSLDVDVRTVAAVIADWTGVPLGSLLKDEQTNLLSLENRLGERVIGQDAALGALAQRLRAAKTGLTSENGPLGVFLLVGPSGIGKTETALALADSLFGGEKSLITINLSEYQEAHTVSQLKGSPPGYVGYGQGGVLTEAVRKRPYSVVLLDEVEKAHRDVLNLFYQVFDRGFMRDGEGREIDFRNTVIVMTANLGSDHLMQLLDEQPDAPDSTLHELLRPILRDHFQPALLARFQTLIYRPLQVDALKRIVAIKLNQVAQRLHCHYGLSCQIEDSLTDTLVAACLLPDTGARNIDSLLNQQILPVLSQQLLSRMSEQQRTTSLTLGWHEEDGITLTFEGE | not soluble |
| MATITQRNGKWRVQIRMKGVSRSATFERASDAKAWAARIESQIMDGIQGNAPRNTIFADLIRRYLSEVTPSKRGAREESYRIGRALKTPLAKVRLADLRPQDFADWRDQRLQEVSPTSVGRELTTLSAVCEHAMKEWGLLRENPVRKISKPKKSRARTRRPTEQEIADICAALLYRPNEKPKMAVQRVAVAVLFAIETAMRAGEICGLKWADVNMRRRIAHLPITKNGDSRDVPLSLRAAELIEQLRGIDDTWVFSLDAKSLDVLFRRARDNCGIQGLHFHDTRREALTRLSKKVPVEVLAKISGHRDLRILLNVYYRPDMADIAKMLD | not soluble |
| MITAEKKKKNKFLPNFDKQSIYSLRFDEMQNWLVEQGQQKFRAKQIFEWLYQKRVDSIDEMTNLSKDLRQLLKDNFTVTTLTTVVKQESKDGTIKFLYELQDGYTIETVLMRHDYGNSVCVTTQVGCRIGCTFCASTLGGLKRNLEAGEIVSQVLTVQKALDATEERVSQIVIMGIGEPFENYDEMMDFLRIVNDDNSLNIGARHITVSTSGIIPRIYDFADEDIQINFAVSLHAAKDEVRSRLMPINRAYNVEKLIEAIQYYQEKTNRRVTFEYGLFGGVNDQLEHARELAHLIKGLNCHVNLIPVNHVPERNYVKTAKNDIFKFEKELKRLGINATIRREQGSDIDAACGQLRAKERQVETRLEHHHHHH | not soluble |
| MYLSHFGLEQLPFHLTPDTELFLGLAPHFEAIQTLSAAIEMGEGVSKLTGEVGTGKTMVCRMLLTHLGDEVALIYLPNPMLSGEELRQAVAAELQLDVASPVRVVEQIQTRLIELHQQGKRVVALVDEAQALSDEALETLRLFGNLETEQTKLLQIVLIGQPELDVRLAQHHLRQFRQRITFNANLRPLTQAETEVYIESRLQKAQAPYPLFNATLKKAVWRASQGIPRLINQICHKALLLAWHEQSPLVNQHHLFAAIHDTYDSCKPRFKTPILWGWSKP | not soluble |
| MRVLITGGNRGLGLQLVKVFHENGHIIYPLVRTEVAVTQLKQMFSCRCFPILADLAADESTEQIKKQLEEYTEYMDLVINNAGITGKETEVLHTNSEELTDLFNIHCLGVIRAVKGTYMALAKSDHPRIINVSSRLGSLHKMANKEFPQGHFSYSYRIAKAAQNMLTLCLQQEFENKGISVTAIHPGKLKTEIGAFDANMTPAEGTKNIYDWVIDSNEDLSGQFIEPGVGEIKW | not soluble |
